Data from patent US20210030857A1 (NGM BIOPHARMACEUTICALS, published 2021).
Values joined by “and” are separate entries in the source; they are usually repeats but may differ in a detail not shown here. Equal values may be shown once. Read-outs that look alike come from different tables or passages of the source.

Key:
[1] = biological target: T1, human beta klotho protein (soluble, used in Biacore) (human, UniProt Q86Z14 53-997, limits assumed); assay: Biacore SPR (as in Example 2)
T1 construct: also called HuKLB; huKLB
T1 sequence: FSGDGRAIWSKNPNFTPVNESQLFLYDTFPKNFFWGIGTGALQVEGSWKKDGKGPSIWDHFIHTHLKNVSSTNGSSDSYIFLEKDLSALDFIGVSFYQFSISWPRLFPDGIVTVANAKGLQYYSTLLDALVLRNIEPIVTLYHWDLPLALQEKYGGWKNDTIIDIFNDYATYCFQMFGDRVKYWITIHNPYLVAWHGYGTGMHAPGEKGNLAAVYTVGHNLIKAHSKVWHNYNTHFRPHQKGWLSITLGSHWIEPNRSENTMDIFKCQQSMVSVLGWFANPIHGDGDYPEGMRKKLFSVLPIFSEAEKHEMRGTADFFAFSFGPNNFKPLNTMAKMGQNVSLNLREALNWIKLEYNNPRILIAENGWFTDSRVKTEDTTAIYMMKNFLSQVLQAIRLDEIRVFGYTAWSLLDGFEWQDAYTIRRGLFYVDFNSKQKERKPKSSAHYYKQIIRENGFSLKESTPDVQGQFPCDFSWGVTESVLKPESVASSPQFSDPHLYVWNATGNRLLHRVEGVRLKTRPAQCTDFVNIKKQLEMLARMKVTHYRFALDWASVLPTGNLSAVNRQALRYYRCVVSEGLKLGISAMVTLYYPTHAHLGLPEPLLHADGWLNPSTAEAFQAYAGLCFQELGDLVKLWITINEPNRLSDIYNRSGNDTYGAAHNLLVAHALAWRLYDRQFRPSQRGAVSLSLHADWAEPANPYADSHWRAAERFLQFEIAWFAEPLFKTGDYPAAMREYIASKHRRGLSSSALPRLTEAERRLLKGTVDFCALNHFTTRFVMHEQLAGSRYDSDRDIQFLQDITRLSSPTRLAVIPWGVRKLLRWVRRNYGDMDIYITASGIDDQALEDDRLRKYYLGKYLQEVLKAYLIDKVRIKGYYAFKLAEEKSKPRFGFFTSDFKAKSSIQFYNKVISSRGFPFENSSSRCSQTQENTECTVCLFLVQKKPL

[2] = biological target: T1, human beta klotho protein (soluble, …); assay: Biacore SPR (as in Example 2); remark: listed apart in the source
[3] = biological target: T2, human beta klotho expressed on cells (human, UniProt Q86Z14 1-1044); assay: FACS on transfected Expi293 cells
T2 construct: also called HuKLB overexpressing cells; Human KLB
T2 sequence: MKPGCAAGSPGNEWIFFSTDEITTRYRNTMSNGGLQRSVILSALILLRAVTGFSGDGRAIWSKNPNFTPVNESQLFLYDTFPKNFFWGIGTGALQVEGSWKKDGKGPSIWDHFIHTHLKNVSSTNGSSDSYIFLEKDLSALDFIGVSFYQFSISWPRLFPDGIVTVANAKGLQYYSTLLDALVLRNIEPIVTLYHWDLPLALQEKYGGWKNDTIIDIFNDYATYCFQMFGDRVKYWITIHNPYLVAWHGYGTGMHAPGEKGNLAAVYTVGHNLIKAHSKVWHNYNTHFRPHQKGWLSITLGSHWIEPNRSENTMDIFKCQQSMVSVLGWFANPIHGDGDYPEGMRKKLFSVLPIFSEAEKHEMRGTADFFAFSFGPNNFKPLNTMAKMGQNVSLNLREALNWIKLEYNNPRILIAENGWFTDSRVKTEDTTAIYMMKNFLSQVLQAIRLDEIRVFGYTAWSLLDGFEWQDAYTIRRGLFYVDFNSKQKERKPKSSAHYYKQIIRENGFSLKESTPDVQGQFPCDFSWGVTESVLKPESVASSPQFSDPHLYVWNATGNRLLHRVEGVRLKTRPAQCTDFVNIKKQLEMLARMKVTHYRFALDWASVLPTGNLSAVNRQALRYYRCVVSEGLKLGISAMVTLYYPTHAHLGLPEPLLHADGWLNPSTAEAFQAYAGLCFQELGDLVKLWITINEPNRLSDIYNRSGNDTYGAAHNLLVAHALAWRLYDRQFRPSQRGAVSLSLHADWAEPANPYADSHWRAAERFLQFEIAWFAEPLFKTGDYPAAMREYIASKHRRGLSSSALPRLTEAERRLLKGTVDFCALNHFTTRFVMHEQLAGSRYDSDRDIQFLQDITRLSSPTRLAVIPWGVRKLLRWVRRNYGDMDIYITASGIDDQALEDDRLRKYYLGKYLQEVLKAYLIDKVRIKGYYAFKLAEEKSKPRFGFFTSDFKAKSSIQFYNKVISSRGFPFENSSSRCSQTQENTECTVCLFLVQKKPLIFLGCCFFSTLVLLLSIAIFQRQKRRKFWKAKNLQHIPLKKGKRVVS
Procedure: Studies were performed in order to localize the binding site on human KLB of anti-beta klotho antibodies in the 5H23 epitope bin, including 5H23 as described in Example 3, with sequences shown in Tables 1-10 and FIGS. 1-3, and human anti-beta klotho antibodies in the 5H23 epitope bin, such as humanized 5H23 antibodies (e.g., VH SEQ ID NO: 271 and VL SEQ ID NO: 276). For example, FACS-based binding assays for domain mapping were performed on Expi293 cells (Life Technologies, A14635) that were transiently transfected with plasmids encoding variants of KLB: human, mouse, cynomolgus, a chimeric version in which the KL1 domain sequence of mouse KLB (M1-F506) replaces the KL1 domain of human KLB (M1-F508) to create mouse-human KLB (SEQ ID NO: 376), and a second chimera in which the human KL1 sequence (M1-F508) replaces the KL1 domain of mouse KLB (M1-F506) to create human-mouse KLB (SEQ ID NO: 374). Additionally, the expression vector pYD7 harboring no KLB sequence was transfected as a negative control.
In some studies, binding of a purified sample of a humanized 5H23 antibody (e.g., VH SEQ ID NO: 271 and VL SEQ ID NO: 276) to KLB variants was determined by FACS analysis. […] After washing with PBS/1% BSA/0.1% azide, transfected cells were then co-incubated with labeled anti-human Fc (Jackson lmmunoresearch) for 30 minutes at 4° C. After washing with PBS/1% BSA/0.1% azide, cells were acquired on flow cytometer (FACS Calibur) and analyzed by cytometric software (FlowJo). To display the resulting data, graphs plotting the number of cells as a function of fluorescence intensity were generated, and the median fluorescence intensity (MFI) was determined for each sample as shown in Table 30.

B1: antibody 5H23 (antibody, V domains shown)
VH: QVQLQQSGPELVKPGALVKISCKASGYTFTSYDINWVKQRPGQGLEWIGWIYPGDGSTKYNEKFKGKATLTADKSSRTAYMQLSSLTSENSAVYFCARSDYYGSRSFAYWGQGTLVTVSA
VL: DIVLTQSPASLAVSLGQRATISCRASKSVSTSGYVYMHWNQQKPGQPPKLLIYLASYLESGVPARFSGSGSGTDFTLNIHPVEEEDAAIYYCQHSRDLTFPFGGGTKLEIK
notes: Murine monoclonal antibody from hybridoma; also called 5H23-Alexa647 (labelled form)
Kd [1]: 0.05 nM

B2: humanized 5H23 antibody (VH SEQ ID NO: 271 and VL SEQ ID NO: 276) (antibody, V domains shown)
VH: QVQLQQSGAEVKKPGASVKVSCKASGYTFTSYDINWVRQAPGQGLEWIGWIYPGDGSTKYNEKFKGKATITRDTSASTAYMELSSLRSEDTAVYFCARSDYYGSRSFAYWGQGTLVTVSS
VL: DIVMTQSPDSLAVSLGERATINCRASKSVSTSGYVYMHWYQQKPGQPPKLLIYLASYLESGVPDRFSGSGSGTDFTLTISSVQAEDVAVYYCQHSRDLTFPFGGGTKLEIK
notes: also called h5H23; h5H23 (Prep 1)
Kd [2]: 0.64 nM and 0.58 nM

B3: negative control antibody, anti-keyhole limpet hemocyanin (KLH) antibody (antibody, human IgG1, kappa, V domains shown)
VH: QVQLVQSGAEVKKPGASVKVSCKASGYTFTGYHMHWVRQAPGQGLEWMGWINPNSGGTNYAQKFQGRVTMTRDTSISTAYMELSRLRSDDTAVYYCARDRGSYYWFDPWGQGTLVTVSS
VL: DIQMTQSPSSLSASVGDRVTITCRASQGIRNDLGWYQQKPGKAPKRLIYAASSLQSGVPSRFSGSGSGTEFTLTISSLQPEDFATYYCLQHNSYPLTFGGGTKVEIKR
notes: also called Neg; Control; anti-KLH antibody
binding result [3]: no binding (tested: 1 µg/ml)
